From PMC5300155, “Biochemical and biophysical investigations of the interaction between human glucokinase and pro-apoptotic BAD” (PLoS ONE, 2017)
Blank lines part the entries; values can stand above or below the molecule they belong to.

What was measured:
[1] = molecular target: recombinant human pancreatic glucokinase (human) (UniProt P35557)
[2] = molecular target: recombinant human pancreatic glucokinase (human) (UniProt P35557); remark: listed apart in the source
[3] = molecular target: recombinant human Bcl-xL, Δ45–84, Δ210–233 variant (human) (UniProt Q07817); assay: fluorescence polarisation; competition: 200 nM f-BH3, 50 nM Bcl-xL, BAD forms varied 0–50 μM; room temperature
[4] = molecular target: recombinant human BAD-GST fusion polypeptide (human) (UniProt Q92934); assay: AUC; sedimentation velocity; single proteins or 1:1 molar mixtures incubated on ice 30 min; BAD buffer pH 8.5; 20°C
[5] = molecular target: recombinant human BAD-GST fusion polypeptide (human) (UniProt Q92934); assay: ITC; Bcl-xL (100 μM) titrated in 4 μL injections into BAD-GST (10–18 μM) in the cell; 25°C; BAD buffer (0.1 M Tris, 0.1 M KCl, 0.5 M arginine, 2.5 mM CHAPS, 5 mM TCEP, 10% glycerol, pH 8.5)
[6] = molecular target: recombinant human pancreatic glucokinase (human) (UniProt P35557); remark: listed apart in the source
[7] = molecular target: recombinant human BAD-GST fusion polypeptide (human) (UniProt Q92934); assay: SEC; HiPrep 16/60 Sephacryl S-200 HR, calibrated; single proteins or equimolar mixtures incubated on ice 30 min; BAD buffer pH 8.5; 4°C
[8] = molecular target: T1, Bcl-xL (Homo sapiens, UniProt Q07817, DEL45-84); assay: Fluorescence polarization competition with f-BH3 for binding to Bcl-xL; conditions: ITC and fluorescence polarization assays
T1 construct: made in house
Experimental: Exon 1 of human bcl-xl lacking the C-terminal residues 189–233 was obtained from Stanley Korsmeyer (Addgene plasmid 8755) and site-directed mutagenesis was performed to create the Δ45–84, Δ210–233 variant. Bcl-xL was expressed and purified using a modified procedure described previously. Briefly, Bcl-xL was purified by nickel affinity chromatography and dialyzed against potassium phosphate buffer (20 mM, pH 7.4) containing NaCl (50 mM), EDTA (1 mM), and DTT (10 mM). Protein was applied to a Superdex 200 10/30 HR size-exclusion column, at a flow rate of 0.02 mL/min, to remove aggregate and oligomers prior to binding assays.
A fluorescence polarization assay developed by Zhang, et al. was utilized to measure interactions between BAD and its binding partners. Two 21-residue FITC-labeled peptides containing the BH3 domain of BAD were synthesized and purified to >95% by Peptide2.0 (f-BH3 = NLWAAQRYGRELRRMSDK(FITC)FVD; f-pBH3 = NLWAAQRYGRELRRM(p)SDK(FITC) FVD). Polarization was measured at room temperature with an excitation wavelength of 485 nm and an emission wavelength of 530 nm using a SpectraMax M5 microplate reader (Molecular Devices). Experiments to measure binding constants of the fluorescent peptides to Bcl-xL or GCK were performed in black 96-well plates. Each well contained 15 nM peptide, 60 μL BAD buffer (0.1 M Tris, 0.1 M KCl, 0.5 M arginine, 2.5 mM CHAPS, 5 mM TCEP, 10% glycerol, pH 8.5) and variable concentrations of Bcl-xL (0–2.25 μM) or GCK (0–400 μM) in assay buffer (20 mM phosphate buffer, pH 7.4, 1 mM EDTA, 50 mM NaCl, 10 mM DTT) in a final volume of 120 μL. High GCK concentrations were chosen in an effort to detect a signal indicating a binding event. Assays containing GCK also contained 250 mM glucose. […] Plates were incubated at room temperature in the dark for 15 min prior to polarization measurements.

[9] = molecular target: T2, human pancreatic GCK (Homo sapiens, UniProt P35557); assay: Isothermal titration calorimetry with GCK; type: binding; conditions: GCK (100 μM) titrated into S118D BAD-GST (10–15 μM), 13 μL injections, BAD buffer pH 8.5, 25°C
T2 construct: hexahistidine (N); made in house; host or cells: glucokinase auxotroph BM5340(DE3)
T2 sequence (P35557 1-465): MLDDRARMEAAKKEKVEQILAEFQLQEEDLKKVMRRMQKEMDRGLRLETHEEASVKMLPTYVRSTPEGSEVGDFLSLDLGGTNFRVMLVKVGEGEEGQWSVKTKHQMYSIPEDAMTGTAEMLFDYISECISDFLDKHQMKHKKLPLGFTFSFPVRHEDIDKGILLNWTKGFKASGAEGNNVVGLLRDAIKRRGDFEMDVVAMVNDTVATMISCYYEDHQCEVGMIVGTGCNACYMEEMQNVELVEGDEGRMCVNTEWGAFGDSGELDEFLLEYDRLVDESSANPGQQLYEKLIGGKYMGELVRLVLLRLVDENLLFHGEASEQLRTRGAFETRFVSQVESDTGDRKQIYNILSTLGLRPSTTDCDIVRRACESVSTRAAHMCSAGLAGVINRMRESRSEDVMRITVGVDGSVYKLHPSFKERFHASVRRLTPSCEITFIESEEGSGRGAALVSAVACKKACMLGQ
Experimental: Recombinant human pancreatic GCK containing an N-terminal hexahistidine tag was produced in the glucokinase auxotroph BM5340(DE3) and purified using a previously described procedure. TEV protease was expressed as a GST-fusion protein from a pGEX plasmid encoding the S219V variant, provided by David Waugh (Addgene plasmid 8827). Expression was induced with IPTG (1 mM) for 4 h at 30°C. Cell pellets were resuspended in Tris buffer (50 mM, pH 8.0) containing NaCl (100 mM), glycerol (10% v/v), benzamidine (1 mM) and dithiothreitol (10 mM) and lysed via French Press. Polyethyleneimine (0.1%) was added to the lysate and protein was purified on a glutathione-affinity column (GSTrap, GE Sciences). TEV protease was flash frozen and stored at -80°C for up to 1 month.
Isothermal titration calorimetry was performed at 25°C using a MicroCal VP-ITC (GE Healthcare) instrument. Bcl-xL (100 μM) in BAD buffer (0.1 M Tris, 0.1 M KCl, 0.5 M arginine, 2.5 mM CHAPS, 5 mM TCEP, 10% glycerol, pH 8.5) was titrated into the calorimeter cell containing size-exclusion chromatography purified BAD-GST (10–18 μM) in 4 μL injections. A 21-residue phosphorylated peptide containing the BH3 domain of BAD was synthesized and purified to >95% by Peptide2.0 (pBH3 = NLWAAQRYGRELRRM(p)SDKFVD). The peptide (300 μM) in potassium phosphate buffer (25 mM) containing KCl (25 mM), TCEP (4 mM) and DMSO (5%) with and without glucose (200 mM) was titrated into the cell containing GCK (10 μM) previously dialyzed against the same buffer. GCK (100 μM) in BAD buffer was titrated into the cell containing S118D BAD-GST (10–15 μM) in 13 μL injections. Data were analyzed using Origin software.

[10] = molecular target: T3, GCK (Homo sapiens, UniProt P35557); assay: GCK activity, microplate G6PDH-linked assay as described by Szlyk et al. (37°C); type: biochemical; conditions: S118D BADGST 5 μM, or pBH3 5 μM; GCK 7.5 nM, 96 well plate; S2 Fig
T3 construct: hexahistidine (N); made in house; host or cells: glucokinase auxotroph BM5340(DE3)
T3 sequence (P35557 1-465): T2 sequence (P35557 1-465)
Experimental: Steady state kinetics were also performed as described by Szlyk, et al.[13]. Briefly, G6PDH-linked assays were performed in clear 96-well plates at 37°C with a SpectraMax M5 microplate reader (Molecular Devices) recording absorbance at 340 nm every 30 s. Reaction mixtures contained GCK (7.5 nM), HEPES (100 mM, pH 7.4), KCl (150 mM), MgCl2(6 mM), DTT (1 mM), NAD (1 mM), BSA (0.05%), G6PDH (2.5 U), glucose (0.5–100 mM), and ATP (5 mM) in the presence or absence of BAD-GST S118D variant (5 μM) or phosphorylated BAD BH3 peptide (5 μM) in a final volume of 100 μL.
GCK (7.5 nM) was assayed in the presence of A. S118D BADGST (5 μM) or B. pBH3 (5 μM) in a 96 well plate using a microplate reader. Buffer conditions were as follows: Ref [13]: 100 mM Hepes, pH 7.4; 150 mM KCl; 1 mM NAD+; 0.05% BSA; 6 mM MgCl2; 1 mM DTT; 2.5 U G6PDH; 5 mM ATP. Optimal GCK conditions: 100 mM Hepes, pH 7.4; 150 mM KCl; 1 mM NADP+; 6 mM MgCl2; 10 mM DTT; 1.5 U G6PDH; 5 mM ATP. (EPS) Click here for additional data file.

[11] = tested on: BAD-knockout hepatocytes; conditions: ref [9]; cited from earlier work
Text: Phosphorylation of BAD modulates its participation in apoptosis and glucose metabolism. High glucose concentrations stimulate BAD phosphorylation at three serine residues, resulting in reduced pro-apoptotic activity. In particular, phosphorylation at Ser155, within the BH3 domain of murine BAD, prevents interaction with Bcl-xL, thereby quenching BAD’s apoptotic activity. […] Moreover, i ...

[12] = molecular target: T1, Bcl-xL; assay: Analytical ultracentrifugation sedimentation velocity of 1:1 mixture BAD-GST and Bcl-xL; type: binding; conditions: 1:1 mixture of BAD-GST and Bcl-xL, 20°C, 50,000 x g, BAD buffer pH 8.5
Experimental: Sedimentation velocity experiments were conducted with an Optima XLI Ultracentrifuge (Beckman Coulter) using a four-hole rotor with three 420 μL samples in standard double-sector Epon centerpieces equipped with sapphire windows. Absorbance and interference data were collected simultaneously. Size-exclusion purified proteins were concentrated to OD280 nm = 0.3–1.0 prior to centrifugation. For complex formation, proteins were mixed in a 1:1 molar ratio in BAD buffer (0.1 M Tris, 0.1 M KCl, 0.5 M arginine, 2.5 mM CHAPS, 5 mM TCEP, 10% glycerol, pH 8.5) and incubated on ice 30 min prior to the start of the experiment. Experiments were carried out at 20°C and 50,000 x g. Data were analyzed with Ultrascan III software using a minimum of 70 scans per sample for analysis. Van Holde-Weischet analysis was performed to obtain S20,W values.

[13] = Circular dichroism spectroscopy (secondary structure); type: physicochemical; conditions: far UV CD, 25°C, pH 7.8, 3–15 μM, CDPro
Experimental: Proteins were dialyzed overnight into potassium phosphate buffer (50 mM, pH 7.8) containing KCl (50 mM), glycerol (5% v/v), and TCEP (4 mM). CD spectra were recorded on an AVIV 202 CD spectrometer at 25°C with protein concentrations ranging from 3–15 μM. Spectra were recorded from 200–260 nm in 10 mm pathlength cuvettes using a 1 nm step resolution and 3 s integration time. Three scans were recorded per sample, averaged, and baseline subtracted with appropriate buffer controls. CD signals were converted to molar ellipticity and deconvoluted using CDPro Software.

Molecule: recombinant human Bcl-xL, Δ45–84, Δ210–233 variant (from UniProt Q07817-1 1-209) (domain or fragment)
stoichiometry N (Bcl-xL per BAD-GST dimer) [4]: 2
Kd [5]: 7 nM

B1: S118D variant: S118D phosphomimic variant of BAD-GST (protein)
chain: MFQIPEFEPSEQEDSSSAERGLGPSPAGDGPSGSGKHHRQAPGLLWDASHQQEQPTSSSHHGGAGAVEIRSRHSSYPAGTEDDEGMGEEPSPFRGRSRSAPPNLWAAQRYGRELRRMDDEFVDSFKKGLPRPKSAGTATQMRQSSSWTRVFQSWWDRNLGRGSSAPSQ
modifications: left off: His6, N-terminal, state not stated | GST, C-terminal, kept
Ability to interact with Bcl-xL (in words) [8]: significantly impaired in their ability to interact with Bcl-xL
Binding to GCK by ITC [9]: no detectable binding event
Effect on GCK kinetics under Szlyk et al. buffer conditions [10]: did not increase BAD’s effects on GCK kinetics

B2: S155D BAD variant: phosphomimic murine BAD variant, ref 9 (protein, UniProt Q61337 1-204, looked up, variant S155D)
Bcl2-associated agonist of …: MGTPKQPSLAPAHALGLRKSDPGIRSLGSDAGGRRWRPAAQSMFQIPEFEPSEQEDASATDRGLGPSLTEDQPGPYLAPGLLGSNIHQQGRAATNSHHGGAGAMETRSRHSSYPAGTEEDEGMEEELSPFRGRSRSAPPNLWAAQRYGRELRRMDDEFEGSFKGLPRPKSAGTATQMRQSAGWTRIIQSWWDRNLGKGGSTPSQ
Effect on GCK activity in hepatocytes [11]: stimulates GCK activity in hepatocytes
Restoration of normal glycolytic metabolism in BAD-knockout hepatocytes [11]: normal glycolytic metabolism can be restored

Continued, in another order:

increase in GCK activity over unmodified BAD-GST at 1.0 mM glucose [1]: 5%
increase in GCK activity at glucose below the K0.5 value with phosphorylated BAD (> 2 μM) [2]: 15%
IC50 [3]: 1600 nM
Molecule: BAD-GST phosphorylated in vitro with PKAc (from UniProt Q92934 1-168) (natural protein)

percent increase in GCK rate, glucose 0.5–1.0 mM, largest at 0.8 mM glucose with BAD-GST ≥ 2 μM [6]: 10%
IC50 [3]: 130 nM
stoichiometry N [4]: 2
stoichiometry N [7]: 2
Molecule: recombinant human BAD-GST fusion polypeptide (from UniProt Q92934 1-168) (natural protein)

Sedimentation coefficient [12]: 1.3
B3: Bcl-xL: recombinant human Bcl-xL Δ45–84, Δ210–233 variant (protein)
chain: MSQSNRELVVDFLSYKLSQKGYSWSQFSDVEENRTEAPEGTESEAVKQALREAGDEFELRYRRAFSDLTSQLHITPGTAYQSFEQVVNELFRDGVNWGRIVAFFSFGGALCVESVDKEMQVLVSRIAAWMATYLNDHLEPWIQENGGWDTFVELYGNNAAAESRKGQER
modifications: left off: His tag (from the nickel affinity chromatography), end not stated, state not stated
notes: recombinant human Bcl-xL Δ45–84, Δ210–233 variant
Random coil content [13]: roughly 30%
α-helical content [13]: 43%
β-sheet content [13]: 14%
